experiment: soluble fraction after stress (log2 fold change); higher = more stays soluble; pooled small domains, quantitative proteomics; details: stress: pH 4
How it was run: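 Custom libraries of small protein domains were pooled and exposed to pH 4. High-throughput quantitative proteomics then measured the log2 fold change in the amount of each domain still soluble, with higher values meaning more stayed soluble. This soluble-fraction fold change stands for aggregation propensity.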

Sequence | soluble fraction (log2)
HMKKDNLKKIKSIDEDIENELFKLGIYHFEQISIWSSKNAEWIENFLNLPNYVRANQWVEQAKILK | -0.885
HMRRPTYPTVTTEAGMVVEDRSSGFVGDIVRWSFEGVTLRDRQQQLRHFTWKPGGFLINGTPVTLKRPE | 0.0911
HMQSREISYSEFVTAVEAGDVRNVTLDGEQVRFRRADGSDYVTIRPEDAEVTKLLMANDIPVRAEP | -0.198
HMGIIQAQIPGLVSRLFVKKGDKVAVNQRLFILEAMKMENEIDSPIQGMVEKIHITTGSKVEKGDLIMEIV | ≥ 0.43
HMAIADQPISAEHFDKLRQVLNSNTQETIASAKQHWASISNNAEFTNENVTRTLLEEMLAFIKSAS | -0.887
HMSDEEAISKLPGVGPAILEKLKEAGYNDIMTIAVDSPKNLAELAEIGEPTAAKIIAAAKKAAD | -0.109
HMTLDVALSKEIKYMLKEEHYLPGDKLPSERKLAELFHVQRLTVRGALNLLLQDKTIISKPRSGYYVAPKR | 0.225
HMATIGVGSKVTLTTYVDWVGNGLLKTRDFYFVSELNGKRAVLRADSMNGAIYAAVNIDNLRI | -0.103
HMSPVPRIEIELTSSKEDGSWTWRAVGAREPRGSLDGALLAKPAAVGDVLRVETDQFLDGMTVTAILPPRD | -0.6
HMLKVHPRDQEENRLLLLKGERLYEESTGDTRVMIDMWLRKFEEALNSRSRENIEDARRELKEQLAELDN | -0.312
HMLLAPLRLGAAPDIKAQAPLATILARHNGEMEAKDLWQRFGGEIDAFYLQLKTEVAHGWIVEPEPA | 0.0787
HMVDIGQSIRVELIREGKDSHQAVGYLRDGSMVVVNHGRKLIGSTVEVEITSIVPSSAGKVIFAEYLE | -1.05
HMSRMGDSIKSLRSRNNMSQDALAEKLNVTRQAISNWENSKTQPDADTLKNLGIIFNVTVDEIINNDF | -0.587
HMKKTIIVHVVGEVNTPGIVELNEGARIIDAINGAGGKTEEADMSKINLAYVIEDGSQIYVPSIYE | -1.08
HMKHRFVVGEVLSIGKLQHEITLKTAQGERKFQLDKQDLPASIQDGAKVRAELNEAGRVIDVHPLK | -0.178
HMKPDSEFTSQDLWQNDLAGTGSAAYRRDKMGALLGIGYGNAKRFLERLNSYGVTRSEFDEALAQLGE | 0.134
HMKGYIGESKARNIALKKAPGASITKFEFDKDDGIAVYEVELRKGIYEYELKINAVTGAIIEFEKDIE | 0.147
HMNKDEFLRRLEDALSGEVPASVIRENLNYYADYLSQELGKGRTMDEIIEEIGEPNIVARTIINSAEAA | -0.602
HMIMTGSIQEKNGKYYTVLNIKDKNGKYKKKWQTTGLPVKGNKRKAEQILRRRIAEYEANQL | ≥ 0.43
HMTSKTLSADGGENTRLDKFLSNHLPEISRTKIQKMINDGLVYVNQNYAKASLVLDGTELISYTIPD | 0.263
HMGNRQEQVRIIRDLWRQLADAGQPVPAKHLTLDLDALDATQLTKLEDQAHGWLAKLSAQADLADAA | 0.22
HMSSDLVDYLVKYVAIVDNQEIEIADSKIGTAELGTTVSEVAKTVGNYYPKATVLSVKITGRNQEIVFEY | -1.8
HMSDRQLKRQANILYTTRKLASKVGYDGLTMRGLAEASEVSPKTLYNLFSSKDELLAAALEDLVGIV | 0.0711
HMELVEVGDLTGLTVEQAENVLKNSNISISIDKYDESDKYEKDQIISQNPQNKKVKKGTAIHVVLSNGP | -0.181
HMSSWEEQLKIWAKNELASGNTDILARATVSFEQILIEAALTHTGGRKKTAAELLGWGRNTLTRKIKELHI | -0.743
HMAQTEIPYSEFLREVGNGQIKSVIIEGSEITGFYKTSGTSFNVVAPDDPKLVERLMDQGVEVRAQPT | 0.193
HMDYYNILGVNKAATAQDIKRAYRKLAKEHHPDHGGDATRLQQVNEAYDTLKDPQRREQYDS | 0.0634
HMNGQFIELKNTTGTIIEARVLSFQNGKVKLQRNDGLIFVASISIFDSESIEVIKQKVAEISESKKS | -0.0246

Sequence | soluble fraction (log2)
HMTNNFIVTWRNYNEEVLEIDVNVKKGSMPKYNGKTPEREGYQFVGWDPEITEVTKDITYVAQFM | -0.0457
HMLQLSDAISRVESFLQGQNRNLAFSIDENTERSVVTVLDSDTGDVIRQIPSEELLVLAKRIQELQQD | -1.19
HMAPREELIAIHEALDKLEREDPQVSQLVKLRYFVGMTMAEAADAMDLKKRAAEALWTYGKAWLHREIKKN | -0.576
HMYFMDEETWESKKTLLNDWYEANPEYADRRAISDGLFKIGDLQPDFRRRHWGSIGVIFADIPNSPMG | -1.37
HMQNNIEFTVLEEDAQKRLDVLLSEKTALSRSASASLIEEGGVLVNGRKEPKKYKPVRGEIITAILPE | -0.549
HMYAVQKGDTLKKIADQFGISVDTIKWANDMKGDALSIDQELKIP | 0.0154
HMDGEAQTYVEYGKWFPADLPLEAVRQLADGVPVTKELVAALNPRRSEWEEIKAGLDKIGYPNELL | -0.567
HMSTPAKVTPTNPIVKQLFNAAETQIKNKDIQNAIASYEKADTLTTDEKVKQYIHYQLSTLKDDN | 0.0384
HMKVNIGDQVYNQMKDQIMSGVWVPGEKIPSENQLMEVFGVSRGTVRQAIQKLSAVGLLETRRGEGSYVGQ | -0.0128
HMKEQLEAYVNRLFADAALTIRNAEVRQEILQHALDRYDDLIASGKTEQEAYDETVSGIGDVSGLYEHK | -0.526
HMPEKKKYGDFVSMTEEEYGKLVSEYGQEAAKRMVEILNNYKGATGKPYKSDYLAILNWVVKRIKEE | 0.077
HMVLVSNYGEVVRKARERKGLDHGSLAMKISEKKSIITSVESGNMKPNEKLIKKLENFLNINLM | -0.471
HMVKLSDGIVEHIKSLIMAGRLKPGDKLPPEREFAATLGVSRTALREAVRTLSLMGLLDARQGEGTFVSG | 0.313
HMFNEFEDIPDIISAEGIDPAMREEVAANLKKYYKNPDAMLALAPLEREYYEKLVGILSEKIELKKEN | -0.361
HMETLTPQEHKVLLLAVKGRTNGEIASELGIAQNTVKNHLAHIYAKMGVGNRTELASEYLRRIH | 0.0578
HMSNIIIYPNPTNDGLIHIKGSKFPFNYALYNLSGKLIETGKKNQIQLNDRGVYLLKIQTEGQTYFKKII | -0.754
HMSKYERVYTGSEINVNHLKSQLEDAGISSVVRNDHESAIRAGFGSDYDRGVLLFVEKDNLLRAKHIIEKT | 0.0771
HMLPKTVTLIDPVSGVAKTVTWVPALTLYSARRKAGLNRVPNTATIDRGGRELTGKRGSTLQPGDVVRW | ≥ 0.43
HMAGQWQQDQNGWKYKTDNGDHMKNTWYQDSDSRWYYFGPDGYMKSSTMTPDGYVVGSDGAWIE | -1.63
HMTLTLEQAAAIKNSEGEQYGKIESERLAAMSVQIDKAIKSNGHDPNKKADLERKLDAIGIILNARAAG | -0.0482
HMDEGQEHYVKETDLPFYSEADPASSVIFPLVLNQKLIEKERKDDWIRALEPTTGLVGWVLLKSLSPQQLS | -1.59
HMDIRLMPGTVLTREYQGIEHRVTVAQDGQYEFEGRRYPSLSMIAREITGTRWSGPLFFGVK | 0.141
HMGSAIAHAIASLPDRYRELLLLKYDTGYSEKEIAQLLGMTEANVKKTIQRAKAKLQTLLDEMEA | -0.354
HMDLRIIKTKKAIKTAFLNLLKENKYHNITISAISETALINRKTFYAHYETKDELYADVIEDALRVLSP | -1.04
HMPRKLDDQLQEQIRYLKSNYPRMSAAGIFRQLQDNGSIKHGDVSESTINRYVNLLSIEMKTTT | 0.149
HMLNEIMDTINKYISDKRNNKVAQNILSAALDELNSQIRVGLKDLNPHSIEEFKENVINSPYIEFEQG | -0.126
HMSTSAAELLRTARQQAGMSQSAVAELAKTSQSAIAMYEAGNREPSLPVLQRLLAATGHQLSLSVLP | 0.00437

— the domain aggregation screens of Martell et al. (2025)
